US20240075137A1 (COMPUGEN, published 2024)
Numbering of substitutions follows the chain as printed. In names and notes the source's numbering stands. Read-outs that look alike come from different tables or passages of the source.

T1: Mouse TIGIT-His (mouse, UniProt P86176)
T1 construct: also called mouse TIGIT monomer (prepared in-house)
T1 sequence (soluble monomer with His tag, looked up): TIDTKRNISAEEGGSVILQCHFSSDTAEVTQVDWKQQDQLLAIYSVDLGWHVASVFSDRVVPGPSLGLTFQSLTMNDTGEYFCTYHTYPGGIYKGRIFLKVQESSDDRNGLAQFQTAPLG

T2: PVRIG (FACS-based competition assay of FIGS. 7 and 15) (Homo sapiens, UniProt Q6DKI7)
T2 construct: made because the format of the assay is only described in U.S. Ser. No. 15/048,967; also called human PVRIG
T2 sequence (receptor, looked up): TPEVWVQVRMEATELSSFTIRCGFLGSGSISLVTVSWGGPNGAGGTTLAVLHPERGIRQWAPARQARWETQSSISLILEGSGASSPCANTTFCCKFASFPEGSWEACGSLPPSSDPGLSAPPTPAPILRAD

T3: cynomolgus PVRIG on cells (cynomolgus, UniProt A0A2K5WVV8 41-322)
T3 construct: whole, on cells; also called cPVRIG; expi cPVRIG cells
T3 sequence: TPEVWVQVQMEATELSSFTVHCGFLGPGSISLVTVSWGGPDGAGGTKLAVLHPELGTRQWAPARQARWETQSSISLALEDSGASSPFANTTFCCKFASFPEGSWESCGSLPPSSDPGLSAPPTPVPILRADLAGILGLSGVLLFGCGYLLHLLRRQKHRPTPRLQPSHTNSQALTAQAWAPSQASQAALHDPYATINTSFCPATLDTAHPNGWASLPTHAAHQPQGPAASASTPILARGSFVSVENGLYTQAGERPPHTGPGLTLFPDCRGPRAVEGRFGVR

T4: human PVRIG on cells (human, UniProt Q6DKI7 1-326)
T4 construct: whole, on cells; over-expressed on HEK cells or endogenous on Jurkat and CD8 T cells; also called hPVRIG; HEK hPVRIG cells
T4 sequence (looked up): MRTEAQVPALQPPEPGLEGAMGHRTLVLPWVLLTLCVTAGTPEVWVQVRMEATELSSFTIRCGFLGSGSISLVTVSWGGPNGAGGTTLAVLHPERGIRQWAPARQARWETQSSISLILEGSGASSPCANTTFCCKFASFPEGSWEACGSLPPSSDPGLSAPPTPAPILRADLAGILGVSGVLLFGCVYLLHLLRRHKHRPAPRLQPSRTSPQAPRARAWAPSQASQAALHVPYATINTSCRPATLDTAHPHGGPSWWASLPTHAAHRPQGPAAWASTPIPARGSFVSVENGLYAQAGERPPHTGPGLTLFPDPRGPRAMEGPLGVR

T5: human TIGIT on cells (human, UniProt Q495A1 22-141)
T5 construct: also called Expi293 human TIGIT over-expressing cells
T5 sequence: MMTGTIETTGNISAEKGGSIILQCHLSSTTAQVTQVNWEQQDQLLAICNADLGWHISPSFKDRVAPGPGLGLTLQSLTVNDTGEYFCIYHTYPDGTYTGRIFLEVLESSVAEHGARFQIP

T6: human TIGIT ECD with C-terminal polyhistidine tag (human, UniProt Q495A1 22-141)
T6 construct: in-house or Sino Biological; also called hTIGIT-HIS; human TIGIT-HIS
T6 sequence: T5 sequence

B1: CHA.9.547.1 (antibody, human IgG4 S228P, kappa, V domains shown)
VH: EVQLVESGGGLVQPGGSLRLSCAASGFTFSSYIMSWVRQAPGKGLEWVSTISGGGTNTYYADSVKGRFTISRDNSKNTLYLQMNSLRAEDTAVYYCAKWLLSYYAMDYWGQGTLVTVSS
VL: DIQMTQSPSSLSASVGDRVTITCRASQNINVWLTWYQQKPGKAPKLLIYKASNLHTGVPSRFSGSGSGTDFTLTISSLQPEDFATYYCQQGQSYPYTFGQGTKLEIKR
modifications: AF647 dye on the antibody in the FACS assay of FIG. 73
notes: also called CHA.9.547.1.H4(S241P)
B2: CHA.7.548 (antibody, V domains shown)
VH: EVQLQQSGPELVKPGASVKISCKASGYTFTDYSMNWVKQSHGKSLEWIGDITPNNGSPNYNQKFKDKATLTVDKSSSTVYMELRSLTSEDSAVYYCASLFFDYWGHGTTLTVSS
VL: DIVMTQSPSSLSVSAGEKVTMSCKSSQSLLNSGNQKNYLAWYQQKPGQPPKLLIYGASTRDSGVPDRFTGSGSGTDFTLTITSVQAEDLAVYYCQNDHTYPYTFGGGTKLEIK
B3: CHA.7.549 (antibody, V domains shown)
VH: QVQLQQPGTELVKPGASVKLSCKASGFTFTTHWMHWVRQRPGQGLEWIGNIYPSNGGSNYNEKFKTKATLTVDRSSSTAYMHLSSLTSEDSAVYYCARRVNWDGYYFDYWGQGTTLTVSS
VL: DIVMTQSQKFMSTSVGDRVSVTCKASQNVGTNVAWYQQKPGQSPKLLIYSASYRYSGVPDRFTGSGSGTDFTLTISNVQSEDLADYFCQQYNSYPLTFGGGTKLEIK
B4: CHA.7.550 (antibody, V domains shown)
VH: QVQLQESGTELVKPGASVKLSCKASGYTFTSYWIHWVKQRPGQGLEWIGNINPSNGGTNYNEKFKSKAALTVDKSSSTAYMQLSSLTSEDSAVYYCARRGLPYFFDYWGQGTTLTVSS
VL: B3 VL with A25G, T31Y, L46A, I48V, Y53D, Y55H, T63A, D85E, G100A, I106L
B5: CPA.9.103 (fab) (Fab, V domains shown)
VH: EVQLVETGGGLIQPGGSLRLSCAASGFTVSSNYMSWVRQAPGKGLEWVSVIYSGGSTYYADSVKGRFTISRDNSKNTLYLQMNSLRAEDTAVYYCARGARPNGQYPYWGQGTLVTVSS
VL: DIQLTQSPSFLSASVGDRVTITCRASHGIKSLFSWYQQKPGKAPKLLIYAASTLQTGVPSRFSGSASGTEFTLTISSLQPEDFATYYCLQLDSFPTWTFGQGTKVEIK
notes: variant of CPA.9.059 screened as fab
B6: CPA.9.103 (antibody, human IgG4 S228P, kappa, V domains shown)
VH: B5 VH
VL: DIQLTQSPSFLSASVGDRVTITCRASHGIKSLFSWYQQKPGKAPKLLIYAASTLQTGVPSRFSGSASGTEFTLTISSLQPEDFATYYCLQLDSFPTWTFGQGTKVEIKR
modifications: AF647 dye on the antibody in the FACS assay of FIG. 73
notes: fab form is m92; also called CPA.9.103.H4(S241P)
B7: CPA.9.101 (fab) (Fab, V domains shown)
VH: B5 VH with R100P, P101L, N102F
VL: B5 VL with L4M, F10S, G28A, K30A
notes: as for B5

What was measured:
Mouse TIGIT-His = biological target: T1, Mouse TIGIT-His; experiment: SPR (ProteOn), Mouse TIGIT-His
cyno TIGIT on cells [1] = biological target: T7, cyno TIGIT on cells (cynomolgus macaque); experiment: FACS titration of AF647-labelled mAb on cyno effector memory CD8+ T cells, Cyno Donor 3; isotype gMFI subtracted
T7 construct: whole, on cells; also called Expi293 cyno TIGIT over-expressing cells

Cyno TIGIT-His = biological target: T8, Cyno TIGIT-His; experiment: SPR (ProteOn), Cyno TIGIT-His
T8 construct: also called cyno TIGIT monomer (prepared in-house); C-terminal HIS-tagged cyno TIGIT ECD recombinant protein
T8 sequence (ECD with C-terminal His tag, as listed by the source): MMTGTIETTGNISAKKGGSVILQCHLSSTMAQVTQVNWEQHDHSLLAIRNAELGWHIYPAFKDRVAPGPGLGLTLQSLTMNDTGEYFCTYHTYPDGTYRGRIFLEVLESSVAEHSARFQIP

cyno TIGIT on cells [2] = biological target: T7, cyno TIGIT on cells; experiment: FACS titration of AF647-labelled mAb on cyno effector memory CD8+ T cells, Cyno Donor 1; isotype gMFI subtracted
[3] = biological target: T2, PVRIG (FACS-based competition assay of …); experiment: FACS-based competition assay of PVRIG blocking; format and competitor not given
[4] = biological target: T3, cynomolgus PVRIG on cells; experiment: FACS, cyno PBMC, CD8+ T cells, 10ug/ml
[5] = biological target: T3, cynomolgus PVRIG on cells; experiment: FACS, cyno PBMC, NK cells, 10ug/ml
human PVRIG on cells [6] = biological target: T4, human PVRIG on cells; experiment: FACS, HEK hPVRIG cells (HEK OE)
human PVRIG on cells [7] = biological target: T4, human PVRIG on cells; experiment: FACS, human PBMC, CD8+ T cells, 10ug/ml
human PVRIG on cells [8] = biological target: T4, human PVRIG on cells; experiment: FACS, HEK hPVRIG over HEK parental cells, 3.3ug/ml
[9] = biological target: T3, cynomolgus PVRIG on cells; experiment: FACS, cyno PBMC, NK cells, 10ug/ml; remark: listed apart in the source
human PVRIG on cells [10] = biological target: T4, human PVRIG on cells; experiment: FACS, human PBMC, CD56 int. NK cells, 10ug/ml
[11] = biological target: T2, PVRIG (FACS-based competition assay of …); experiment: FACS-based competition assay of PVRIG blocking; format and competitor not given; remark: listed apart in the source
[12] = biological target: T3, cynomolgus PVRIG on cells; experiment: FACS, cyno PBMC, CD8+ T cells, 10ug/ml; remark: listed apart in the source
human PVRIG on cells [13] = biological target: T4, human PVRIG on cells; experiment: FACS, human PBMC, CD56 int. NK cells, 10ug/ml; remark: listed apart in the source
[14] = biological target: T3, cynomolgus PVRIG on cells; experiment: FACS, expi cPVRIG over expi parental cells, 3.3ug/ml
[15] = biological target: T3, cynomolgus PVRIG on cells; experiment: as above; remark: listed apart in the source
human PVRIG on cells [16] = biological target: T4, human PVRIG on cells; experiment: FACS, Jurkat cells, relative to control, 3.3ug/ml
human PVRIG on cells [17] = biological target: T4, human PVRIG on cells; experiment: FACS, human PBMC, CD8+ T cells, 10ug/ml; remark: listed apart in the source
cyno TIGIT on cells [18] = biological target: T7, cyno TIGIT on cells; experiment: flow cytometry of fab; MFI on cyno TIGIT over-expressing Expi293 / MFI on parental Expi293
human TIGIT on cells = biological target: T5, human TIGIT on cells; experiment: flow cytometry of fab; MFI on human TIGIT over-expressing Expi293 / MFI on parental Expi293
[19] = biological target: T6, human TIGIT ECD with C-terminal …; experiment: SPR (ProteOn), Human TIGIT-His

Binder	IC50 [3]	EC50 (human PVRIG on cells [6])	gMFIr Human CD8+ T cells (human PVRIG on cells [7])	gMFIr HEK OE/par (human PVRIG on cells [8])	gMFIr Human CD56 int. NK (human PVRIG on cells [10])	IC50 [11]	gMFIr Human CD56 int. NK (human PVRIG on cells [13])	gMFIr Expi cyno OE/par [14]	gMFIr Expi cyno OE/par [15]	gMFIr Jurkat (human PVRIG on cells [16])	gMFIr Human CD8+ T cells (human PVRIG on cells [17])	also measured
B1												binding result (Mouse TIGIT-His): no binding (tested: not printed); Kd (cyno TIGIT on cells [1]): 19 nM; Kd (Cyno TIGIT-His): 1.13 nM; Kd (cyno TIGIT on cells [2]): 25 nM
B2	19 nM	0.27 nM	3.35	45.3	3.15	19 nM	3.15	4.25	4.25	7.37	3.35	gMFIr Cyno CD8+ T cells [4]: 1.09; gMFIr Cyno NK cells [5]: 1.18; gMFIr Cyno NK cells [9]: 1.18; gMFIr Cyno CD8+ T cells [12]: 1.09
B3	36.1 nM	2.6 nM	1.42	29.7	3.05	36.1 nM	3.05	1	1	2.23	1.42	
B4	58.3 nM	1.34 nM	1.29	27.7	1.6	58.3 nM	1.6	0.9	0.9	2.1	1.29	
B5												MFIr (OE/Par) cTIGIT (cyno TIGIT on cells [18]): 30; MFIr (OE/Par) hTIGIT (human TIGIT on cells): 95
B6												Kd (Mouse TIGIT-His): 25 nM; Kd (cyno TIGIT on cells [1]): 25 nM; Kd [19]: 0.0064 nM; Kd (Cyno TIGIT-His): 0.337 nM; Kd (cyno TIGIT on cells [2]): 31 nM
B7												MFIr (OE/Par) cTIGIT (cyno TIGIT on cells [18]): 22; MFIr (OE/Par) hTIGIT (human TIGIT on cells): 130
